# Results: publication PMC11266426, “Membrane remodeling by FAM92A1 during brain development regulates neuronal morphology, synaptic function, and cognition” (Nature Communications, 2024)
# B1: Human FAM92A1 BAR domain (residues 1-219), wild type (domain or fragment, UniProt A1XBS5 1-219, looked up)
# chain: MMRRTLENRNAQTKQLQTAVSNVEKHFGELCQIFAAYVRKTARLRDKADLLVNEINAYAATETPHLKLGLMNFADEFAKLQDYRQAEVERLEAKVVEPLKTYGTIVKMKRDDLKATLTARNREAKQLTQLERTRQRNPSDRHVISQAETELQRAAMDASRTSRHLEETINNFERQKMKDIKTIFSEFITIEMLFHGKALEVYTAAYQNIQNIDEDEDLE
# notes: FAM92A1 (CIBAR1), human, residues 1-219 cloned into the pHAT vector between SpeI and NsiI; residues 2-211 form the BAR domain in the crystal structure; Homodimer by crystal structure and SEC-MALS; The pHAT vector probably adds the His tag at the N-terminus (surmise); also called FAM92A1 N-terminal region; WT; source: E. coli BL21 (DE3), purified (Ni-NTA, gel filtration on Superdex 75)
# Target: the molecule itself
# Test: SEC-MALS; purified proteins on a Superdex 200 10/300 column at 4 °C, flow 0.5 mL/min; MiniDAWN light scattering and Optilab dRI detectors
protein,measurement,value
B1,stoichiometry N,2
